Changes are numbered by the printed parent chain.
B1: recombinant hnRNPG RGG1mut (natural protein, human, UniProt P38159 1-391, looked up)
chain: MVEADRPGKLFIGGLNTETNEKALEAVFGKYGRIVEVLLMKDRETNKSRGFAFVTFESPADAKDAARDMNGKSLDGKAIKVEQATKPSFESGRRGPPPPPRSRGPPRGLAGGAGGSGGTAGPPSAGGHMDDGGYSMNFNMSSSRGPLPVKRGPPPRSGGPPPKRSAPSGPVRSSSGMGGRAPVSRGRDSYGGPPRREPLPSRRDVYLSPRDDGYSTKDSYSSRDYPSSRDTRDYAPPPRDYTYRDYGHSSSRDDYPSRGYSDRDGYGRDRDYSDHPSGGSYRDSYESYGNSRSAPPTRGPPPSYGGSSRYDDYSSSRDGYGGSRDSYSSSRSDLYSSGRDRVGRQERGLPPSMERGYPPPRDSYSSSSRGAPRGGGRGGSRSDRGGGRSRY
B2: recombinant hnRNPG RGG2mut (natural protein, human, UniProt P38159 1-391, looked up)
chain: B1 chain with A110R, A113R, A120R, A125R, R369A, R373A, R377A
B3: recombinant hnRNPG RRMmut (natural protein, human, UniProt P38159 1-391, looked up)
chain: B1 chain with K9A, F11A, R49A, F51A, F53A, A110R, A113R, A120R, A125R

Molecular target: the molecule itself
Assay: dynamic light scattering

Protein	binding result
B1	binds
B2	binds
B3	binds

From paper PMC6778029 (Molecular cell, 2019)
